Three molecules from patent publication US12527879B2, “Ligands targeted to epidermal growth factor receptors and compositions for use in treating tumors” (priority 2019, dated 2026) can be followed below.

The target of one data set is T1, human EGFR-Ex-Fc (Homo sapiens, UniProt P00533).
T1 construct: the extracellular domain of human EGFR-Fc fusion protein (EGFR-Ex-Fc); purchased R&D system
The experiment in a line: Recognition of human EGFR-Ex-Fc by EGFR-s10. Type of data set: binding. An excerpt:
(§1) EGFR s10 recognized both human and marine EGFR-Ex-Fc. This feature eliminates any requirements for a surrogate molecule to evaluate toxicity in murine platforms. After validating internalization of EGFR-s10 in target cells, we fabricated LTLs loaded with doxorubicin or vinorelbine (EGFR-s10-LD and EGFR-s10-LV, respectively) using a thin film method and PEGylation of EGFR-s10. […] The zeta-potentials were all higher than required to prevent formation of aggregates. […] In summary, EGFR-specific binding of EGFR-s10 was retained through chemical processing, and the resulting LTLs fulfilled the requirements of anti-neoplastic liposomal drugs, indicating suitability for further development.

Data set [1] concerns FaDu cells. The experiment in a line: Endocytosis assay of soluble EGFR-s10 scFv, FaDu. Type of data set: cell-based, human. To be noted: 30 min, confocal microscopy. The protocol:
(§2) Cells were incubated with EGFR-s10 for 30 min at 4° C. or 37° C. Following a PBS wash, the cells were fixed with 2% paraformaldehyde and permeabilized with 0.1% TRITON® X-100. Blocking was accomplished by adding 3% BSA. Mouse ANTI-FLAG antibodies were added to the cells and labeled with FITC anti-mouse IgG. Nuclei were stained with DAPI, and cells were observed on a confocal microscope (TCS-SP5, Leica).
(§3) We produced soluble scFv from EGFR-PC10 and designated it as EGFR-s10. Target binding and internalization are essential requirements of LTL-targeting moieties. We investigated these features of EGFR-s10 in SCCHN cancer cell lines. FaDu cells and Ca9-22 cells were separately incubated with EGFR-s10 at 4° C. or 37° C. for 30 min and compared with isotypic IgG controls. […] (FIGS. 3A-B).

Another data set concerns the target T2, marine EGFR-Ex-Fc (Mus musculus, UniProt Q01279).
T2 construct: the extracellular domain of human EGFR-Fc fusion protein (EGFR-Ex-Fc)
The experiment in a line: Recognition of murine EGFR-Ex-Fc by EGFR-s10. Type of data set: binding.
Source text: as §1

Data set [2] deals with Ca9-22 cells. The data set can be described thus: Endocytosis assay of soluble EGFR-s10 scFv, Ca9-22. Type of data set: cell-based, human. To be noted: 30 min, confocal microscopy. The protocol: as §2, §3
Data set [3] in a line: Particle size by dynamic light scattering. The class given is physicochemical. Particulars: DLS at 25° C. The protocol: (§4) The average particle size of liposomes was determined by dynamic light scattering (DLS) at 25° C. using Malvern Zetasizer Nano ZS (Malvern instruments) with a 633-nm laser and a detection angle of 90°. The zeta-potential of the liposomes was measured using laser Doppler electrophoresis on the Malvern Zetasizer Nano ZS.

The nature of data set [4]: Zeta-potential by laser Doppler electrophoresis. The class given is physicochemical. The protocol:
as §4

For data set [5], the system named is FaDu cells. The experiment in a line: In vitro cytotoxicity assay (WST-1), FaDu. The class given is cell-based, human. On the procedure:
(§5) FaDu and Ca9-22 cells were incubated with various concentrations of non-targeted liposomal drugs, or EGFR-s10-conjugated LTLs for 4, 8, 16 and 24 hr. The medium was replaced with complete medium for 48 hr, and 4-[3-(4-iodophenyl)-2-(4-nitrophenyl)-2H-5-tetrazolio]-1,3-benzene disulfonate (WST-1) was added at 0.5 mg/ml. After the cells were incubated for 3 hr at 37° C., the reaction products' absorbance at 440-nm was measured, and half maximal inhibitory concentrations (IC50) were calculated.
(§6) The cytotoxicity of EGFR-s10-conjugated LTLs was compared to that of non-targeting counterparts in human SCCHN cell lines. Cell viability was analyzed by the WST-1 assay and calculated as percentage of living cells.

For data set [6], the system named is Ca9-22 cells. The experiment in a line: In vitro cytotoxicity assay (WST-1), Ca9-22. The class given is cell-based, human. The protocol:
as §5, §6
For orientation: Tetrazolium assays rely on reduction of a dye to a coloured formazan, in cell work by metabolically active cells.

Data set [7] deals with Ca9-22 subcutaneous xenograft. The experiment in a line: Murine subcutaneous Ca9-22 xenograft therapeutic assay. Type of data set: in vivo. To be noted: 1.5 mg/kg twice a week for 4 weeks. The protocol: FaDu and Ca9-22 cells were inoculated s.c. into the flanks of 8- to 10-week-old Nod-SCID mice (1×10^6 cells/mouse). The diameters of the resulting tumors were measured twice per week, and tumor volume was calculated as follows: large diameter×(small diameter)^2×0.52. When tumors reached a mean volume of 350 mm^3, mice with similarly sized tumors were randomized into treatment cohorts (n=8 mice/group). Therapeutic regimens were injected intravenously (i.v.) as PBS, non-targeted liposomal drugs, or EGFR-s10 conjugated LTLs at 1 mg/kg, twice a week for 4 weeks, with a cumulative dose of 8 mg/kg for each group. The tumor volume was monitored twice a week. Premature death endpoints included weight loss greater than 5 g, inability to eat, or tumor volume exceeding 2000 mm^3.
The LTL treatment confers a statistically significant survival advantage over the non-targeting liposome (p=0.00153) and the median survival time of LTL group was 1.5-times longer than that of NTL group (94 days versus 60 days, respectively; FIG. 5D, upper and lower panels). We also tested singlet vinorelbine treatment in forms of free drug, NTL or LTL, with a dose of 1.5 mg/kg twice a week for 4 weeks in subcutaneously Ca9-22-xenografted NOD/SCID mice.

B1: EGFR-s10: soluble scFv generated from phage clone EGFR-PC10; amino acid sequence SEQ ID NO: 9 (protein)
scFv: EVQLVESGGGLVQPGGSLRLSCAASGFNLSSFWMSWVRQAPGKGLEWVANINHDGSDKYYVDSVKGRFSISRDNTKNSVYLQMDSLRGEDTAVYYCAKGKSLYDGSALDMWGQGTMVTVSSGGGGSGGGGSGGGGSDIVMTQSPSTLSASVGDRVTITCRASQTIGRWLAWYQQKPGKAPKLLIYGASSLQSGVPSRFSGSGSGTDFTLTISSLQPEDFATYYCQQSYSTLWTFGQGTKLEIKR
modifications: Whole scFv
Consider B1, for which the “recognition of human EGFR-Ex-Fc” value in the data set with human EGFR-Ex-Fc was “recognized”. Further, the binding to cells result is “bound to the cell membrane” in the data set with FaDu cells [1] (4° C.) and “bound to the cell membrane” with Ca9-22 cells [2] (Ca9-22, 4° C.). Further, the internalization entry is recorded as “Internalization of EGFR-s10 (scFvs) as cytoplasmic aggregates was observed” in the data set with FaDu cells [1] (37° C.) and “Internalization of EGFR-s10 (scFvs) as cytoplasmic aggregates was observed” with Ca9-22 cells [2] (Ca9-22, 37° C.). Besides, the “recognition of marine EGFR-Ex-Fc” value with marine EGFR-Ex-Fc was “recognized”.

B2: EGFR-s10-LV (conjugate)
scFv: B1 scFv
modifications: left off: small tags and cut ends
B2 displayed a Z-average in data set [3] of 115.2 nm·days. In addition, the ζ-potential in data set [4] was −29.2 mV. For the same molecule, the “IC50 relative to non-targeting liposome” value in the data set on FaDu cells [5] is 0.21 fold. Moreover, the “IC50 relative to non-targeting liposome” value in the data set with Ca9-22 cells [6] is listed as 0.14 fold. In data set [7], the “mean tumor volume compared to NTL vinorelbine” value is reported as “smaller” and the weight loss entry is recorded as “no weight loss was observed”.

B3: EGFR-s10-LD (conjugate)
scFv: B1 scFv
modifications: left off: small tags and cut ends
B3: the Z-average in data set [3] stood at 125 nm·days. Besides, in [4], the ζ-potential is −28.1 mV. Moreover, the figures for the “IC50 relative to non-targeting liposome” value in the data set with FaDu cells [5] and with Ca9-22 cells [6] were 0.33 fold and 0.0028 fold, respectively.
